# *1 amine or outer side, *2 acyl side, *3 side chain or, on linkers, in order; H or OH if unused. Bridges are numbered along the chain shown (N, C = ends). Where no end group is shown, it is not given here. TBMB = c1c(C[*:1])cc(C[*:3])cc1C[*:2]
# T1: human IL-17A dimer (human, UniProt Q16552 24-155)
# T1 construct: also called hIL17-A
# T1 sequence (looked up): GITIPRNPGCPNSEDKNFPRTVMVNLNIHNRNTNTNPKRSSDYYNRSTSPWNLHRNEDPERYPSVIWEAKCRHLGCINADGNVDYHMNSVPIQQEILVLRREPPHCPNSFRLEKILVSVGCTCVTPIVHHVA
# T2: human IL-17E (human, UniProt Q9H293 33-177)
# T2 construct: also called hIL17-E; IL-25
# T2 sequence (looked up): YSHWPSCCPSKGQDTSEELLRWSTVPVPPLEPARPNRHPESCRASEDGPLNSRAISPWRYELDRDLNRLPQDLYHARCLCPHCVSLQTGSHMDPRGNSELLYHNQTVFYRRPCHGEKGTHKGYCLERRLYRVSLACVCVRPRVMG
# T3: mouse IL-17A dimer (mouse, UniProt Q62386 26-158)
# T3 sequence (looked up): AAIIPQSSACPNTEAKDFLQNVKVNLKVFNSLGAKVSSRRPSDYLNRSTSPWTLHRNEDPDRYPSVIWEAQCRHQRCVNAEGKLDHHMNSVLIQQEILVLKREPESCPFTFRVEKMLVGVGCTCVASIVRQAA
# B1: BCY2232 (peptide)
# peptide: CPENELYCFLSSQQC
# modifications: linker 1-8-15 via TBMB
# notes: Bicyclic peptide
# B2: BCY2240 [Ac-(SEQ ID NO: 36)] (peptide)
# peptide: Ac-CYEAELCAFLGLC
# modifications: linker 1-7-13 via TBMB
# notes: Bicyclic peptide
# B3: BCY2249 (peptide)
# peptide: CYEDELCEFLALC
# modifications: linker 1-7-13 via TBMB
# notes: Bicyclic peptide
# B4: BCY2240 [A-(SEQ ID NO: 56)-A] (peptide)
# peptide: ACGYDYYCALYDICA
# modifications: linker 2-8-14 via TBMB
# notes: Bicyclic peptide
# B5: BCY2310 (peptide)
# peptide: ACPQDLELCTFLFGDCAXXXXXXK
# modifications: Ci, Cii and Ciii cyclised with TBMB; six sarcosines (written X) after the C-terminal Ala; fluorescein (Fl) on the C-terminal Lys
# Key:
# [1] = target: T1, human IL-17A dimer; test: binding assay, method analogous to WO 2011/141823
# [2] = target: T1, human IL-17A dimer; test: FP competition, competitor: tracer BCY2311
# Method: (§1) Affinity determination by fluorescence polarization (FP) competition. […] Peptides were diluted to an appropriate concentration in assay buffer (PBS+0.01% Tween20, adjusted to pH7.4 using NaOH (1M)) with a maximum of 1% DMSO, then serially diluted 1 in 2 into assay buffer. […] The PHERAstar FS was set at 25° C. with 200 flashes per well and a positioning delay of 0.1 second, with each well measured at 5 to 10 minute intervals for 60 minutes. […] Data analysis was performed in Dotmatics where mP values were fit to the Cheng Prusoff equation in order to generate a Ki value.
# [3] = target: T1, human IL-17A dimer; test: FP competition, competitor: tracer BCY2311; Ki Mean column, n=6
# Method: as §1
# [4] = target: T1, human IL-17A dimer; test: FP competition, competitor: tracer BCY2315
# Method: as §1
# [5] = target: T1, human IL-17A dimer; test: FP competition, competitor: tracer BCY2315; Ki Mean column, n=2
# Method: as §1
# [6] = target: T2, human IL-17E; test: binding assay, method analogous to WO 2011/141823; column head prints hIL17-F, read as IL-17E by paragraph 30
# [7] = target: T1, human IL-17A dimer; test: binding assay, method analogous to WO 2011/141823; remark: listed apart in the source
# [8] = target: T3, mouse IL-17A dimer; test: binding assay, method analogous to WO 2011/141823
# [9] = target: T1, human IL-17A dimer; test: binding assay, method analogous to WO 2011/141823; Mean column, n=2
binder,measurement,setting,value
B1,Kd,[1],398 nM
B2,Ki,[2],26.9 nM
same,Ki,[3],25.7 nM
B3,Ki,[4],65 nM
same,Ki,[5],65 nM
B4,Kd,[6],198 nM
B5,Kd,[7],26.6 nM
same,Kd,[8],110 nM
same,Kd,[9],26.6 nM

# From US20220024983A1, “BICYCLIC PEPTIDE LIGANDS SPECIFIC FOR IL-17” (BicycleRD Limited, priority 2018, published 2022)
